Patent US20180022822A1, “NOVEL ANTI-FIBROBLAST ACTIVATION PROTEIN (FAP) BINDING AGENTS AND USES THEREOF” (Mabimmune Diagnostics AG, priority 2016, published 2018)
Substitutions are numbered along the chain they refer to. One block for each molecule: values may come before it.

Experiments:
[1] = tested on: directly coated FAP peptides mixture (cFAP); assay: direct ELISA on coated mixture of FAP peptides; assay type: binding, human; settings: peptides 378-392, 622-636, 721-736
Experimental: (§1) ELISA assays were performed with varying antibody concentrations to validate the binding of the exemplary antibodies of the present invention to FAP and to be able to determine their half maximal effective concentration (EC50). For the exemplary recombinant human NI-206-18H2, NI-206-20A8, NI-206-6D3, ‘NI-206-14C5, NI-206-34C11, NI-206.82C2, NI-206.59B4, NI-206.22F7, NI-206.27E8, NI-206.12G4 and NI-206.17A6 antibodies, 96-well microplates (Costar, Corning, USA) were coated with FAP, with a mixture of the 3 peptides or with BSA (Sigma-Aldrich, Buchs, Switzerland) diluted to a concentration of 5 μg/ml in carbonate ELISA coating buffer (15 mM Na2CO3, 35 mM NaHCO3, pH 9.4) for the direct ELISA. For the capture ELISA, the microplates were coated with mouse anti-His monoclonal antibody (Clontech) diluted to a concentration of 3 μg/ml in PBS, the plates were then blocked, FAP or BSA were diluted to a concentration of 2 μg/ml in PBS and added to the plates to be captured. The binding efficiency of the antibodies was then tested.
(§2) The EC50 values were estimated by a non-linear regression using GraphPad Prism (San Diego, USA) software. […] The binding of NI-206.12G4 towards sFAP was not tested.

[2] = biological target: T1, captured FAP (sFAP) (Homo sapiens, UniProt Q12884); assay: capture ELISA, FAP captured via his-tag with coated anti-His antibody; assay type: binding
T1 sequence (Q12884 1-760): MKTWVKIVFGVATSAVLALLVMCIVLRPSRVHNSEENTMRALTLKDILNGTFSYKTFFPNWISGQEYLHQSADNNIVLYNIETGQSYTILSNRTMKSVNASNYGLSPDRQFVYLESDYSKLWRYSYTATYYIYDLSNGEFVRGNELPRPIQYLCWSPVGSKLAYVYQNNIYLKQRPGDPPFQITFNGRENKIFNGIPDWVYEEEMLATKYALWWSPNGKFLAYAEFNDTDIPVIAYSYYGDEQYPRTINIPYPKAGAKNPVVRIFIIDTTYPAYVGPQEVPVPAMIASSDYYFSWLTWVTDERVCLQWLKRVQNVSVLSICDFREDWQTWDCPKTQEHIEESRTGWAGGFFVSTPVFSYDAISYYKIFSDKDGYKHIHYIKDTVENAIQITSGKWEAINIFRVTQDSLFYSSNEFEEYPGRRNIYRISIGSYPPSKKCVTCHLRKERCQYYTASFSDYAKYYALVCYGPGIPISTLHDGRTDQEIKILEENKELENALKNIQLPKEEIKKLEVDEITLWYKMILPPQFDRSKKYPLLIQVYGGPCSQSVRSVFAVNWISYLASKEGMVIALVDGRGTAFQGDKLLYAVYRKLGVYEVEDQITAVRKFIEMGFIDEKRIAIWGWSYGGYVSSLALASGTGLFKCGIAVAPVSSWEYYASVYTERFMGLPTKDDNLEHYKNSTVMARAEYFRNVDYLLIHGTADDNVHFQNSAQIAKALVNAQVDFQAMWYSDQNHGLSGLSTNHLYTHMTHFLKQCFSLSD
Experimental: as §1, §2

[3] = biological target: T2, directly coated FAP (FAP) (Homo sapiens, UniProt Q12884); assay: direct ELISA on directly coated FAP; assay type: binding
T2 sequence (Q12884 1-760): T1 sequence (Q12884 1-760)
Experimental: as §1, §2

[4] = biological target: T3, transmembrane human FAP on FAP expressing HEK293 cells (Homo sapiens, UniProt Q12884); assay: flow cytometry of Cy5 labelled antibodies on FAP-HEK293 cells in pH adjusted PBS; assay type: cell-based; settings: pH 7.4 to 6.2; 0.1-100 nM Cy5 labelled antibody
T3 construct: HEK293 cells were transduced with retrovirus encoding full length human FAP cDNA; host or cells: HEK293 (retroviral transduction, G418 selected)
T3 sequence (Q12884 1-760): T1 sequence (Q12884 1-760)
Experimental: To evaluate the binding of NI-206.82C2, NI-206.59B4, NI-206.27E8, NI-206.12G4, NI-206.18H2 and NI-206.6D3 to transmembrane human FAP, an FAP expressing HEK293 cell line was received from the National Institutes of Health, Bethesda, Md. The generation of this FAP expressing HEK293 cells is described in: J. Exp. Med. 2013 Vol. 210 No. 6 1125-1135. HEK293 cells were transduced with retrovirus encoding full length human FAP cDNA. Cloning was performed using Fast Cloning Pack and FastDigest restriction enzymes (both from Fermentas). Transient retroviral supernatants were generated by transfecting 293GP cells with the FAP plasmid using Lipofectamine 2000 (Invitrogen). Retroviral supernatants were collected at 48 h after transfection and centrifuged onto Retronectin-coated (10 μg/ml; Takara), non-tissue culture-treated 6-well plates at 2,000 G for 2 h at 32° C. These retroviral supernatants where then used to transduce HEK293 cells overnight. Transduced FAP-HEK293 cells were selected with 1 mg/ml G418 (CellGro).
500′000 FAP-HEK293 cells were incubated for 1 hr at 4° C. either with Cy5 labelled NI-206.82C2, NI-206.59B4, NI-206.27E8, NI-206.12G4, NI-206.18H2 or NI-206.6D3 or with Cy5 labelled 43A11 at four different antibody concentrations (0.1, 1, 10, and 100 nM) in seven different pH-adjusted PBS buffers (pH 7.4, 6.8, 6.6, 6.5, 6.4, 6.3 and 6.2). PBS buffers were adjusted to using MES monohydrate (Sigma Aldrich). Following incubation, cells were washed 3 times with 200 uL in matched pH-adjusted PBS, spun at 400G for 4 min, and resuspended in 200 μL of pH adjusted buffer.
To analyze antibody binding, fluorescent activated flow cytometry was performed using a BD Fortesa device for forward scatter, side scatter, and the mean fluorescent intensity (MFI) of the Cy5 channel was recorded using a […] laser excitation and 600/20 filter. Viable cells were gated by forward and side scatter, and singlets/doublet exclusion, and the MFI for Cy5 was quantified using FlowJo software Version 10.1.

[5] = biological target: T4, BSA (Bos taurus, UniProt P02769); assay: ELISA control binding to BSA; set-up: species or system bovine
T4 construct: purchased Sigma-Aldrich
Experimental: as §1

[6] = ELISA, varying antibody concentrations

T4 sequence (P02769 25-607): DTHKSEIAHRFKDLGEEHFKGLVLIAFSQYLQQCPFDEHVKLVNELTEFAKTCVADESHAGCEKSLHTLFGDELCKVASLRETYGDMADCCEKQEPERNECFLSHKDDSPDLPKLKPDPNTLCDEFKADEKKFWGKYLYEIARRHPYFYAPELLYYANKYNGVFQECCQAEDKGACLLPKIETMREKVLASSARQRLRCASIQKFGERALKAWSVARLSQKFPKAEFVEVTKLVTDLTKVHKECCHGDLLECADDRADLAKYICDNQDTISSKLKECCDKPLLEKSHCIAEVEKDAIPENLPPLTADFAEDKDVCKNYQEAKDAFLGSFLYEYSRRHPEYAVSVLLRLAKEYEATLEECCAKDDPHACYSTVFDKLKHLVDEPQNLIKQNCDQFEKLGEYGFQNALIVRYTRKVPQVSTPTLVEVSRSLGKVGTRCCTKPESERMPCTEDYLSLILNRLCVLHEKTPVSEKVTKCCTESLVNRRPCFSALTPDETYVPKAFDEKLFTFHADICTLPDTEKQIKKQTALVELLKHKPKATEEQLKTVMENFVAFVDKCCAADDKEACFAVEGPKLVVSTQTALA

B3: NI-206.27E8: human-derived recombinant anti-FAP antibody; VH SEQ ID NO: 16, VL SEQ ID NO: 18 (antibody, listed as Homo sapiens, V domains shown)
VH: EVQLVESGGGLVEPGGSLRLSCAASGFTFSDAWMNWVRQAPGKGLEWVGRIKTKSDGGTTDYAAPVRGRFSISRDDSKNTLFLEMNSLKTEDTAIYYCFITVIVVSSESPLDHWGQGTLVTVSS
VL: SYELTQPPSVSVSPGQTARITCSGDELPKQYAYWYQQKPGQAPVLVIYKDRQRPSGIPERFSGSSSGTTVTLTISGVQAEDEADYYCQSAYSINTYVIFGGGTKLTVL
EC50 to the directly coated FAP peptides mixture (cFAP) [1]: did not show any binding
paratope-specific avidity (ΔMFI) under acidic conditions vs. at pH 7.4 [4]: increased

B4: NI-206.12G4: human-derived recombinant anti-FAP antibody; VH SEQ ID NO: 20, VL SEQ ID NO: 22 (antibody, listed as Homo sapiens, V domains shown)
VH: EVQLVESGGGLVKPGGSLRLSCAASGFTFSDYYMSWIRQAPGKGLEWISYISSGSSYTNYADSVKGRFTISRDNAKKSVYLEVNGLTVEDTAVYYCARVRYGDREMATIGGFDFWGQGTLVTVSS
VL: B3 VL with E26A, K38S, R51S, Q52E, Y91D, I93G, N94G, Y96S, V97R
EC50 to the directly coated FAP peptides mixture (cFAP) [1]: did not show any binding
paratope-specific avidity (ΔMFI) under acidic conditions vs. at pH 7.4 [4]: decreases

B5: NI-206.59B4: human-derived recombinant anti-FAP antibody; VH SEQ ID NO: 8, VL SEQ ID NO: 10 (antibody, listed as Homo sapiens, V domains shown)
VH: QVQLVQSGAEVKKPGASVKVSCKTSGYTFTDYYIHWVRQAPGQGLEWMGWINPNRGGTNYAQKFQGRVTMTRDTSIATAYMELSRLRSDDTAVYYCATASLKIAAVGTFDCWGQGTLVTVSS
VL: SYELTQPPSVSVSPGQTARITCSGDALSKQYAFWFQQKPGQAPILVIYQDTKRPSGIPGRFSGSSSGTTVTLTISGAQADDEADYYCQSADSSGTYVFGTGTKVTVL
binding to the captured FAP [2, 6]: specifically, strongly and similarly bind
binding to the directly coated FAP [3, 6]: specifically, strongly and similarly bind
EC50 to the directly coated FAP peptides mixture (cFAP) [1]: did not show any binding
binding to BSA [5]: does not bind
paratope-specific avidity (ΔMFI) under acidic conditions vs. at pH 7.4 [4]: increased

Second part, the molecule after the results:

EC50 to the directly coated FAP peptides mixture (cFAP) [1]: did not show any binding
B1: NI-206.17A6: human-derived recombinant anti-FAP antibody; VH SEQ ID NO: 24, VK SEQ ID NO: 26 (antibody, listed as Homo sapiens, V domains shown)
VH: QVQLQESGPGLVRSTETLSLTCLVSGDSINSHYWSWLRQSPGRGLEWIGYIYYTGPTNYNPSLKSRVSISLGTSKDQFSLKLSSVTAADTARYYCARNKVFWRGSDFYYYMDVWGKGTTVTVSS
VL: EIVLTQSPGTLSLSLGERATLSCRASQSLANNYLAWYQQKPGQAPRLLMYDASTRATGIPDRFSGSGSGTDFTLTISRLEPEDFAVYYCQQFVTSHHMYIFGQGTKVEIK

EC50 to the captured FAP (sFAP) ([2]; capture ELISA, non-linear regression, GraphPad Prism): did not show any binding
EC50 to the directly coated FAP (FAP) ([3]; direct ELISA, non-linear regression, GraphPad Prism): did not show any binding
B2: NI-206.22F7: human-derived recombinant anti-FAP antibody; VH SEQ ID NO: 12, VL SEQ ID NO: 14 (antibody, listed as Homo sapiens, V domains shown)
VH: EVQLVETGGGVVQPGRSLRLSCAASGFSFSTHGMYWVRQPPGKGLEWVAVISYDGSDKKYADSVKGRFTISRDNSKNTVYLEMSSVRAEDTALYYCFCRRDAFDLWGQGTMVTVSS
VL: SYVLTQPPSVSVSPGQTARITCSGDALPKKYAYWYQQKSGQAPVLVIYEDTKRPSGIPERFSGSSSGTMATLTISGAQVEDEADYYCYSTDSSGNYWVFGGGTEVTVL
